Assay results: US7799901B2, “Modulators of the function of FAS receptors and other proteins” (Yeda Research and Development Co. Ltd., priority 1995, dated 2010)
Values belong to the molecule of their own block, whether it stands above or below them.

How the values were obtained:
[1] = biological target: CED3/ICE homology region in MACHα1 (Homo sapiens, UniProt Q14790); conditions: 5 mM; bacterial extracts; listed as iodacetic acid
[2] = biological target: T1, FAS-R-p55-R chimera (p55-FAS) (Homo sapiens, UniProt P19438+P25445); experiment: Cross immunoprecipitation with co-expressed p55-FAS chimera in HeLa cells; assay type: binding
T1 construct: transmembrane and intracellular domain of FAS-R (amino acids 153-319); expressed in transfected cells; host or cells: HeLa HtTA-1
T1 sequence (P19438+P25445 with tags, fused parts or gaps): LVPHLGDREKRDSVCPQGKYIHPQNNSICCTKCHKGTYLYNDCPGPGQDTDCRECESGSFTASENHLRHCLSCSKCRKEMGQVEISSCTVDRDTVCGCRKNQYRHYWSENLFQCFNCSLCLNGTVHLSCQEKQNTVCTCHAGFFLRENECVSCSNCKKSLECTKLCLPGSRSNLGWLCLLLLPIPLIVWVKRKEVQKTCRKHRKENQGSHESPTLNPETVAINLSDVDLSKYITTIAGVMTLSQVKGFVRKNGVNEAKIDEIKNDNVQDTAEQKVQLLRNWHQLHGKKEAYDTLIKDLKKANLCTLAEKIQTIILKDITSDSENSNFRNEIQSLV
Experimental: (§1) MORT-1, N-linked to the FLAG octapeptide, (FLAG-MORT-1; Eastman Kodak, New Haven, Conn., USA), Fas-IC, FAS-R, p55-R, a chimera comprised of the extracellular domain of p55-R (amino acids 1-168) fused to the transmembrane and intracellular domain of FAS-R (amino acids 153-319), and the luciferase cDNA which serves as a control, were expressed in HeLa cells. Expression was carried out using a tetracycline-controlled expression vector, in a HeLa cell clone (HtTA-1) that expresses a tetracycline-controlled transactivator (Gossen and Bujard, 1992; see also Boldin et al, 1995). Metabolic labeling with [^35S]methionine and [^35S] cysteine (DUPONT, Wilmington, Del., USA and Amersham, Buckinghamshire, England) was performed 18 hours after transfection, by a further 4 h incubation at 37° C. in Dulbecco's modified Eagle's medium lacking methionine and cysteine, but supplemented with 2% dialyzed fetal calf serum. The cells were then lysed in RIPA buffer (10 mM Tris-HCl, pH 7.5, 150 mM NaCl, 1 NP-40, 1% deoxycholate, 0.1% SDS and 1 mM EDTA) and the lysate was precleared by incubation with irrelevant rabbit antiserum (3 μl/ml) and Protein G Sepharose beads (Pharmacia, Uppsala, Sweden; 60 μl/ml). […]

[3] = test system: GST-Fas-IC fusion protein; experiment: In vitro binding to GST-Fas-IC on glutathione beads; parameters: species or system human or mouse; conditions: [35S]-labeled protein from HeLa extracts; SDS-PAGE, autoradiography
Experimental: Glutathione S-transferase (GST) fusions with the wild type or a mutated Fas-IC were produced and adsorbed to glutathione-agarose beads; see Boldin et al, 1995; Ausubel et al, 1994; Frangioni and Neel, 1993). Binding of metabolically-labeled FLAG-MORT-1 fusion protein to GST-Fas-IC was assessed by incubating the beads for 2 h at 4° C. with extracts of HeLa cells, metabolically labeled with [^35S]methionine (60 μCi/ml), that express FLAG-MORT-1. The extracts were prepared in a buffer containing 50 mM Tris-HCl, pH 7.5, 150 mM NaCl, 0.1% NP-40; 1 mM dithioteitol, 1 mM EDTA, 1 mM phenylmethylsulfonyl fluoride, 20 μg/ml Aprotonin, […] Leupeptin, 10 mM-sodium fluoride and 0.1 mM sodium vanadate (1 ml per 5×10^5 cells).
Expression of MORT-1 molecules fused at their N terminus with the. FLAG octapeptide (FLAG-MORT-1) yielded in HeLa cells proteins of four distinct sizes—about […], 28, 32, and 34 kD. […] Thus, the in vitro interaction was evaluated by assessing, by autoradiography following SDS-PAGE, the binding of [35] metabolically labeled MORT-1, produced in transfected HeLa cells as a fusion with the FLAG octapeptide (FLAG-MORT-1), to GST, GST fusion with the human or mouse Fas-IC (GST-huFas-IC, GST-mFas-IC) or to GST fusion with Fas-IC containing a Ile to Ala replacement mutation at position 225.

[4] = biological target: T2, intracellular domain of FAS-R (Homo sapiens, UniProt P25445); experiment: Cross immunoprecipitation with co-expressed FAS-R in HeLa cells; assay type: binding
T2 construct: expressed in transfected cells; host or cells: HeLa HtTA-1
T2 sequence (P25445 26-335): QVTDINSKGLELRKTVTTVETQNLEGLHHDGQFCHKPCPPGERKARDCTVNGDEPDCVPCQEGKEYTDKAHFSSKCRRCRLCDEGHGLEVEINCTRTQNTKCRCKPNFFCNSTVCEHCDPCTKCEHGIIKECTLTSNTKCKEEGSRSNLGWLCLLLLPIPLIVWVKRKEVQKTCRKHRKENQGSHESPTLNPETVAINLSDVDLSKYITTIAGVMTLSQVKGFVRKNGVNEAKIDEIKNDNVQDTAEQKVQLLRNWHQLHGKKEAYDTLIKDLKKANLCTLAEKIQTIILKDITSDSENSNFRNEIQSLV
Experimental: as §1

CED3/ICE homology region in MACHα1, sequence (Q14790 217-479): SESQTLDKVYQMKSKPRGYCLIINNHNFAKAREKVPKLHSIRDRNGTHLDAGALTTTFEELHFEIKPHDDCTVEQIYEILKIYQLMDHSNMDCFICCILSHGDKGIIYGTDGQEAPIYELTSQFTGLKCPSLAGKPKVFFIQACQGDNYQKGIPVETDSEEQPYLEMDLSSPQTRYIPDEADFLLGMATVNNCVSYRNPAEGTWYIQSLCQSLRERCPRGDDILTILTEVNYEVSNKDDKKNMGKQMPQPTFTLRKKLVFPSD

Molecule: O=C(O)CI [iodoacetic acid]
effect on cleavage of Ac-DEVD-AMC by the MACHα1 CED3/ICE homology region [1]: blocked

binding to intracellular domain of FAS-R-p55-R chimera when co-expressed in HeLa cells [2]: capable of binding
in vitro binding to GST-Fas-IC [3]: showed ability to bind
binding to intracellular domain of FAS-R when co-expressed in HeLa cells [4]: capable of binding
B1: FLAG-MORT-1: MORT-1, N-linked to the FLAG octapeptide (protein)
chain: VNQAPECRFGGGILGPLGKRRDLARASEPRTEGARRAGPQPRPLADPAMDPFLVLLHSVSSSLSSSELTELKFLCLGRVVKRKLERVQSGLDLFSMLLEQNDLEPGHTELLRELLASLRRHDLLRRVDDFEAGAAAGAAPGEEDLCAAFNVICDNVGKDWRRLARQLKVSDTKIDSIEDRYPRNLTERVRESLRIWKNTEKENATVAHLVGALRSCQMNLVADLVQEVQQARDLQNRSGAMSPMSWNSDASTSEAS
modifications: left off: small tags and cut ends
notes: MORT-1, N-linked to the FLAG octapeptide
